# Data as given in paper PMC7268246, “Purification and immobilization of engineered glucose dehydrogenase: a new approach to producing gluconic acid from breadwaste” (Biotechnology for Biofuels, 2020).
# Target: the molecule itself
# Assay: SEC; Superdex Increase 10x300GL column on an ÄKTA Pure system; Ni-NTA purified GDH dialysed into 100 mM HEPES pH 7.4, 200 mM MgCl2, 10% glycerol; run in one buffer only
protein,measurement,value
"recombinant glucose dehydrogenase (GDH) from Sulfolobus solfataricus (enzyme, UniProt O93715 1-366, looked up, glucose dehydrogenase (GDH) of Sulfolobus solfataricus; the discussion gives the monomer as 366 amino acid residues (41 kDa); the tagged construct has 43 kDa; also called engineered GDH; recombinant GDH; source: E. coli BL21-DE3 (pET30a), lysate heat treated at 70 °C, purified (Ni-NTA, dialysis, size exclusion chromatography)) MKAIIVKPPNAGVQVKDVDEKKLDSYGKIKIRTIYNGICGTDREIVNGKLTLSTLPKGKDFLVLGHEAIGVVEESYHGFSQGDLVMPVNRRGCGICRNCLVGRPDFCETGEFGEAGIHKMDGFMREWWYDDPKYLVKIPKSIEDIGILAQPLADIEKSIEEILEVQKRVPVWTCDDGTLNCRKVLVVGTGPIGVLFTLLFRTYGLEVWMANRREPTEVEQTVIEETKTNYYNSSNGYDKLKDSVGKFDVIIDATGADVNILGNVIPLLGRNGVLGLFGFSTSGSVPLDYKTLQEIVHTNKTIIGLVNGQKPHFQQAVVHLASWKTLYPKAAKMLITKTVSINDEKELLKVLREKEHGEIKIRILWE",stoichiometry N,4
